Experiment [1] deals with T1, 32-residue peptide encompassing RSV G Phe165-Lys196, subtype B (Human respiratory syncytial virus …, UniProt O36633, strain).
T1 construct: attachment glycoprotein G of human RSV subtype B, residues Phe165-Lys196; The tested set is a series of alanine mutants of this peptide; source: covalently linked peptides on Pepscan cards
T1 chain: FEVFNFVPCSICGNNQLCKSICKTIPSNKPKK
The experiment can be described thus: peptide or protein array; Pepscan-based ELISA: peptides covalently linked in the wells of cards, mAb at 1-10 ng/mL overnight at 4°C in PBS with horse serum, OVA and Tween 80; HRP-linked anti-human IgG, ABTS. Particulars: both partners purified.

The target of experiment [2] is secreted form of RSV G from strain A2 (sG) (human respiratory syncytial virus strain A2).
Experiment [3] deals with reduced and alkylated form of the G peptide (human respiratory syncytial virus subtype A) (UniProt P03423). The experiment can be described thus: SPR; G peptide (or its reduced and alkylated form) immobilised on a CM5 chip by primary-amine coupling (25 RU), Biacore X100; Fab in serial 2-fold dilutions in HBS-P+ (CB002.5 25 nM-98 pM, CB017.5 100 nM-195 pM; on the reduced and alkylated peptide CB002.5 1,000-1.95 nM, CB017.5 62.5-1.95 nM); 1:1 binding model. For orientation: In SPR one partner is held on a chip, and binding of the other changes the refractive index at the surface.

The target in experiment [4] is T2, secreted form of RSV G from strain A2 (sG) (Human respiratory syncytial virus A, …, UniProt P03423, strain).
T2 construct: attachment glycoprotein G of human respiratory syncytial virus strain A2, secreted form (sG); also called RSV sG; wild-type RSV sG from strain A2; source: FreeStyle 293-F, transfected, purified from supernatant (Strep-Tactin, SEC); not shown: 8xHis, C-terminal, kept
The experiment can be described thus: SPR; sG captured by its C-terminal 8xHis tag on an NTA sensor chip (60-150 RU), Biacore X100; Fab in serial 3-fold dilutions from 300 nM to 46.5 pM in HBS-P+; double-reference subtracted, 1:1 binding model. The conditions noted are these: both partners purified.

Experiment [5] addresses T3, 45-residue synthetic peptide encompassing the subtype A RSV G central conserved region (G peptide) (Human respiratory syncytial virus A …, not fully specified; N-terminal biotin coupling as the last step in synthesis; disulfide bonds of the cystine noose formed by oxidative folding).
T3 construct: attachment glycoprotein G of human RSV subtype A, central conserved region, residues Asn153-Lys197 (45 residues); also called RSV G peptide; subtype A RSV G peptide; source: synthetic peptide (Fmoc solid phase, HPLC), oxidatively folded
T3 chain: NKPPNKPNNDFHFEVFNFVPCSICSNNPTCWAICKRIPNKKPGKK
The experiment can be described thus: SPR; G peptide (or its reduced and alkylated form) immobilised on a CM5 chip by primary-amine coupling (25 RU), Biacore X100; Fab in serial 2-fold dilutions in HBS-P+ (CB002.5 25 nM-98 pM, CB017.5 100 nM-195 pM; on the reduced and alkylated peptide CB002.5 1,000-1.95 nM, CB017.5 62.5-1.95 nM); 1:1 binding model. Particulars: both partners purified.

B1: CB017.5 IgG (antibody, V domains shown)
VH: QVQLVESGGGVVQPGRSLRLSCSASGFTFSVYAMHWVRQAPGQGLEWVAIIWYDGSNKYYADSVKGRFTISRDNSKETLYLQMNSLRVEDTAVYYCARDPIVGHTRDGLDVWGQGTTVTVSS
VL: SYELTQPPSVSVSPGQTARVTCSGDAMAEQYTYWYQQKPGQAPVLIIFKDTERPSGIPERFSGSSSGTTVTLTISGVQTEDEADYYCQSTDSSGTSWVFGGGTKLTVL
notes: as the light chain of m2 (PDB 6BLH); full-length IgG1; also called antibody CB017.5; source: FreeStyle 293-F or PER.C6 cells, transfected, purified (Protein A)
Take B1: in experiment [1], the binding result is “binds”. The same molecule gave an IC50 of neutralization of RSV (rgRSV224) infection of primary HBECs at an air-liquid interface, in the absence of complement; pair that is blocked: RSV G and CX3CR1 in experiment [2] of 45.4 nM.

B2: Fab CB017.5 (Fab, V domains shown)
VH: B1 VH
VL: B1 VL
notes: human; Fab cut with papain from full-length IgG1; source: IgG from FreeStyle 293-F or PER.C6 cells, transfected, Protein A; Fab by papain digestion, purified (Protein A flow-through, SEC)
What is called Kd is the concentration at which binding is half-saturated. A higher Kd goes with lower affinity. With B2, the figures for the equilibrium dissociation constant (Kd) in experiment [3], in experiment [4] and in experiment [5] were 27 nM, 2.4 nM and 4.1 nM, respectively.

B3: CB002.5 IgG (antibody, V domains shown)
VH: QVQLQESGPRLVKPSETLSLTCTVSGGSTSSYFWNWIRQPPGKGLEWIGYIYGSGSADYNPSLKSRVTISIDTSKTQFSLKLTSVTAADTAVYYCARSGFCSDDACYRRGSWFDPWGQGTLVTVSS
VL: DIQMTQSPSSLSASVGDRVTITCRASQSIDNYLNWYQQKPGKAPKLLIYAASGLQSGVPSRFSGSGSGTEFTLTVSSLHPEDFATYYCQQSYSTLTWTFGQGTKVEIK
The molecule B3 showed an IC50 of neutralization of RSV (rgRSV224) infection of primary HBECs at an air-liquid interface, in the absence of complement; pair that is blocked: RSV G and CX3CR1 in experiment [2] of 4.7 nM.

B4: Fab CB002.5 (Fab, V domains shown)
VH: B3 VH
VL: B3 VL
notes: as for B2
For the molecule B4, the equilibrium dissociation constant (Kd) in experiment [3] was determined as 18000 nM; in experiment [4], 3.3 nM; in experiment [5] it was 0.52 nM.

(Values after article PMC5856423, “Structural basis for recognition of the central conserved region of RSV G by neutralizing human antibodies” (PLoS Pathogens, 2018).)
